In the supplement of paper PMC9732359 one finds protein stability index data, which are given here for 26 sequences.

± gives the uncertainty stated by the source.

A short description of this data set: protein stability index of a GFP-peptide fusion (yeast GPS) (PSI 1-4); higher = more stable; sorted into four equal gates, so the index is relative within each strain. A digest of the protocol:
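Mid-log yeast cultures in leucine-free medium, carrying a pooled plasmid library, were sorted into four equal gates by their GFP/Cherry fluorescence ratio. Each plasmid expressed Cherry along with GFP fused upstream of a tiled 17-residue yeast protein peptide. Plasmids recovered from each gate were PCR-amplified and Illumina-sequenced, with reads assigned to strains by barcodes. The protein stability index was obtained by summing each gate's read frequency weighted by its gate number.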

For the sequence DVKVSISHDDLQAVAVA [FAS2], the protein stability index is, setting by setting: (doa10∆) 2.66 ± 0.076; (pdr5∆) 2.6 ± 0.055; (san1∆) 1.61 ± 0.065; (ubr1∆) 2.22 ± 0.049.
The matching figures for EFEIPVSFNGFKLPKKF [BRR2]: 2.58 ± 0.1, 2.94 ± 0.12, 2.61 ± 0.12 and 2.91 ± 0.094.
The matching figures for LDPSLRAPIYHSKFRSS [YML031W/NDC1]: 2.02 ± 0.093, 2.34 ± 0.064, 1.71 ± 0.25 and 2.35 ± 0.072.
As for PDGLGEVGMKVQSGQIY [RET1], the protein stability index amounted to 3.27 ± 0.14 (doa10∆), 3.15 ± 0.12 (pdr5∆), 2.91 ± 0.094 (san1∆) and 3.21 ± 0.25 (ubr1∆).
Taken in the same sequence, the figures for ASSWAKKIAQRERRAAL [RPL14A] were 2.53 ± 0.099, 3.32 ± 0.14, 2.62 ± 0.18 and 2.22 ± 0.079.
Taken in the same sequence, the figures for EVYTLVDSQGLPYNWDA [ARP7] were 3.31 ± 0.2, 3.56 ± 0.2, 2.85 ± 0.14 and 3.22 ± 0.15.
KKIFGTGKRLAKKVARR [RPS24A] gave a protein stability index (doa10∆) of 3.52 ± 0.064, a protein stability index (pdr5∆) of 3.34 ± 0.057, a protein stability index (san1∆) of 3.31 ± 0.039 and a protein stability index (ubr1∆) of 3.42 ± 0.039.
The matching figures for ENVEKKEAALKTMIKTI [SMC2]: 1.93 ± 0.058, 2.29 ± 0.077, 1.73 ± 0.09 and 2.14 ± 0.039.
For the sequence LLFKARLQQQQAQAQAQ [GAL11], the protein stability index is 1.3 ± 0.081 (doa10∆), 1.59 ± 0.075 (pdr5∆), 1.3 ± 0.14 (san1∆) and 1.5 ± 0.056 (ubr1∆).
The matching figures for YATKDGVAHLLNRFNFQ [QCR2]: 2.45 ± 0.088, 2.67 ± 0.053, 1.87 ± 0.29 and 2.6 ± 0.057.
The matching figures for KNVRFRVLQLLAVIMDN [YCG1]: 1.64 ± 0.057, 1.54 ± 0.06, 1.24 ± 0.099 and 1.51 ± 0.043.
The matching figures for KYDRKVPSPTGEYVKEP [RPO21]: 2.98 ± 0.1, 3.22 ± 0.071, 2.81 ± 0.089 and 3.09 ± 0.04.
As for LCYMAPMTVKLVQLPKS [POP3], the protein stability index (doa10∆) was determined as 2.37 ± 0.065, the protein stability index (pdr5∆) is 2.23 ± 0.063, the protein stability index (san1∆) is 2.39 ± 0.06 and the protein stability index (ubr1∆) was found to be 2.76 ± 0.065.
Taken in the same sequence, the figures for SHISASASPHLAPNMQL [SNF2] were 2.92 ± 0.041, 2.83 ± 0.04, 2.93 ± 0.033 and 3.1 ± 0.032.
On to KVSGVSLLALWKEKKEK [RPS23A], for which the protein stability index runs as follows: (doa10∆) 2.55 ± 0.22; (pdr5∆) 1.59 ± 0.1; (san1∆) 1.78 ± 0.1; (ubr1∆) 1.77 ± 0.11.
Taken in the same sequence, the figures for GIIVAVDSRATAGNWVA [PRE2] were 1.14 ± 0.064, 1.46 ± 0.079, 1.24 ± 0.13 and 1.54 ± 0.082.
For NILSNKPGQNNRQQKKR [RRP6], the protein stability index reads like this: (doa10∆) 2.73 ± 0.18; (pdr5∆) 3.06 ± 0.13.
On to DKKLLRRLLNLYNDNNK [SWI1], for which the protein stability index is, setting by setting: (doa10∆) 2.48 ± 0.088; (pdr5∆) 2.62 ± 0.072; (san1∆) 2.57 ± 0.085; (ubr1∆) 2.6 ± 0.068.
The matching figures for MFLYILKHLEEMGKLRE [RRI2]: 3.11 ± 0.11, 3.16 ± 0.11, 3.04 ± 0.078 and 3.16 ± 0.051.
Taken in the same sequence, the figures for IYSSDAQGDPNLEPLIA [NUT1] were 3.36 ± 0.14, 3.12 ± 0.096, 3.04 ± 0.065 and 3.35 ± 0.1.
The matching figures for IGQIIFSVRTKDSNKDV [RPL10]: 2.18 ± 0.05, 2.49 ± 0.048, 2.21 ± 0.065 and 2.79 ± 0.051.
With HLGERAASVIGMLVALG [RPC82], the protein stability index (doa10∆) was determined as 2.05 ± 0.23, the protein stability index (pdr5∆) was determined as 1.71 ± 0.1, the protein stability index (san1∆) worked out at 1.75 ± 0.21 and the protein stability index (ubr1∆) amounted to 2.04 ± 0.067.
Taken in the same sequence, the figures for MSDSIISFAAFILADAG [RPP1B] were 1.62 ± 0.069, 1.35 ± 0.049, 1.31 ± 0.2 and 1.26 ± 0.057.
The matching figures for VGGCKDQIEKLREVVEL [RPT1]: 3.37 ± 0.071, 3.4 ± 0.063, 3.4 ± 0.048 and 3.33 ± 0.061.
Taken in the same sequence, the figures for ILTPESQLKKSKAQQKT [RPL7A] were 3.02 ± 0.078, 3.02 ± 0.12, 2.98 ± 0.12 and 2.98 ± 0.056.
Regarding PGVLPVGIDTHTATDIY [SNF2], the protein stability index (doa10∆) amounted to 2.96 ± 0.066, the protein stability index (pdr5∆) stood at 3.04 ± 0.064, the protein stability index (san1∆) came to 2.77 ± 0.045 and the protein stability index (ubr1∆) turned out to be 2.69 ± 0.04.
